Laboratory results taken from article PMC12495166, “Enhanced solid tumor cell targeting by a neoepitope-encoding oncolytic measles virus combined with CAR therapy” (Molecular Therapy Oncology, 2025).

Legend:
[1] = target: T1, MICB-derived octapeptide VLQSQRTD (soluble) (human); experiment: SPR
T1 peptide: VLQSQRTD

[2] = target: T2, MICB-derived octapeptide VLQSQRTD (soluble) (Homo sapiens); experiment: SPR; antibodies (2 μg/mL) immobilised on an IgG-capture sensor chip; peptides as analyte, 0.5-100 nM octapeptide or 1-200 μM 13-aa peptide; single-cycle kinetics; HBS-EP pH 7.4, 30 μL/min; Sierra SPR-24 Pro; settings: both partners purified
T2 construct: stalk octapeptide starting at position V302 and ending N-terminally of the annotated transmembrane domain; also called immunization peptide
T2 chain: VLQSQRTD

B1: monoclonal antibody clone 12F7 (antibody, V domains shown)
VH: QVQLQQSGAELVRPGTSVKVSCKASGYAFTNYLIEWIKQRPGQGLEWIGVINPRSGGTNYNEKFKGKATLTADKSSITVYMQLSSLTSDDSAIYFCVRSESYGDYGAWFAYWGQGTLVTVSA
VL: DIVLTQSPASLAVSLGQRATISCRASESVDSYGNSFMHWYQQKPGQPPKLLIDRASNRESGIPARFSGSGSRTDFTLTINPVEADDVATYYCQQSNEDPFTFGSGTKLEIK
notes: variable heavy domain of clone 12F7; constant region of the murine heavy chain; variable light domain of clone 12F7; constant region of the murine light chain; also called 12-F7-C12-E3; mAb 12F7; source: mouse hybridoma (ProteoGenix), purified by protein A/G
**Q.** For B1, which koff [1] is on record?
**A.** Its koff is 0.00536 s⁻¹.

**Q.** And the Kd [2]?
**A.** The Kd was 3.85 nM.
